Numbering of substitutions follows the chain as printed. One block for each binder: values may come before it.
How the values were obtained:
[1] = biological target: Pan-species-specific antigen Plasmodium Lactate DeHydrogenase (Pan-PLDH) protein; experiment: indirect ELISA, recombinant MA protein coated 1 ug/ml, antibody 0.32 ng/ml
[2] = biological target: Pan-species-specific antigen Plasmodium Lactate DeHydrogenase (Pan-PLDH) protein; experiment: indirect ELISA, recombinant MA protein coated 1 ug/ml, antibody 40 ng/ml
[3] = biological target: Pan-species-specific antigen Plasmodium Lactate DeHydrogenase (Pan-PLDH) protein; experiment: indirect ELISA, recombinant MA protein coated 1 ug/ml, antibody 200 ng/ml
[4] = biological target: Pan-species-specific antigen Plasmodium Lactate DeHydrogenase (Pan-PLDH) protein; experiment: indirect ELISA, recombinant MA protein coated 1 ug/ml, antibody 1.6 ng/ml
[5] = biological target: Pan-species-specific antigen Plasmodium Lactate DeHydrogenase (Pan-PLDH) protein; experiment: indirect ELISA, recombinant MA protein coated 1 ug/ml, antibody 1000 ng/ml
[6] = biological target: Pan-species-specific antigen Plasmodium Lactate DeHydrogenase (Pan-PLDH) protein; experiment: indirect ELISA, recombinant MA protein coated 1 ug/ml, antibody 0 ng/ml (blank)
[7] = biological target: Pan-species-specific antigen Plasmodium Lactate DeHydrogenase (Pan-PLDH) protein; experiment: indirect ELISA at four coating concentrations, KD calculated from half-maximal OD
[8] = biological target: Pan-species-specific antigen Plasmodium Lactate DeHydrogenase (Pan-PLDH) protein; experiment: indirect ELISA, recombinant MA protein coated 1 ug/ml, antibody 8 ng/ml

OD value at 450 nm (refer to 630 nm) [1]: 0.173 OD
OD value at 450 nm (refer to 630 nm) [2]: 1.43 OD
OD value at 450 nm (refer to 630 nm) [3]: 1.82 OD
OD value at 450 nm (refer to 630 nm) [4]: 0.205 OD
OD value at 450 nm (refer to 630 nm) [5]: 1.94 OD
OD value at 450 nm (refer to 630 nm) [6]: 0.072 OD
Kd [7]: 0.887 nM
OD value at 450 nm (refer to 630 nm) [8]: 0.635 OD
B1: anti-Pan-PLDH 9G7 monoclonal antibody (antibody, mouse IgG2b, kappa, V domains shown)
VH: QVQLQQPGAELVRPGASVKLSCKASGSSFTNYFMNWVKQRPGQGLEWIGMINPSESETRINQKFKDKATLTVDKSSSTAYMQLSSLTAEDSAVYYCAKSGDFYTSYWDYWGQGTTLTVSS
VL: DIQLTQSPASLSASVGETVTITCRGSGNLHNYIAWYQQKQGKSPQLLVYNARTIADGVPSRFSGSGSGTQYSLKINSLQPEDFGSYYCQSFWSSYTFGGGTKLEIKR

OD value at 450 nm (refer to 630 nm) [1]: 0.27 OD
OD value at 450 nm (refer to 630 nm) [2]: 2.02 OD
OD value at 450 nm (refer to 630 nm) [3]: 2.19 OD
OD value at 450 nm (refer to 630 nm) [4]: 0.339 OD
OD value at 450 nm (refer to 630 nm) [5]: 2.26 OD
OD value at 450 nm (refer to 630 nm) [6]: 0.06 OD
Kd [7]: 0.412 nM
OD value at 450 nm (refer to 630 nm) [8]: 1.1 OD
B2: Mutation 1 (antibody, mouse IgG2b, kappa, V domains shown)
VH: B1 VH with F33W, N52H, W107F
VL: B1 VL with I33L, S94T
